This note sets out measurements from PMC9474812, “Structure of the membrane-bound formate hydrogenlyase complex from Escherichia coli” (Nature Communications, 2022).

To fix the notation:
B1: HycF (natural protein, Escherichia coli, UniProt P16432 1-180, looked up)
chain: MFTFIKKVIKTGTATSSYPLEPIAVDKNFRGKPEQNPQQCIGCAACVNACPSNALTVETDLATGELAWEFNLGHCIFCGRCEEVCPTAAIKLSQEYELAVWKKEDFLQQSRFALCNCRVCNRPFAVQKEIDYAIALLKHNGDSRAENHRESFETCPECKRQKCLVPSDRIELTRHMKEAI
notes: HycF, ferredoxin-like subunit (NDUFS8 homolog) of the E. coli formate hydrogenlyase (FHL) complex; coordinates [4Fe4S] clusters F1, F2 and a metal ion at Cys117, Cys120, Cys155, Cys158; Native subunit from the hycABCDEFGHI operon, not tagged; also called ferredoxin-like protein HycF; source: endogenous, E. coli strain MG059e1, anaerobic fermentation; co-purified with His10-HycE from …
B2: HycE, the large hydrogenase subunit of FHL, with an internal 10x His affinity tag (enzyme, Escherichia coli, UniProt P16431 1-537, looked up)
chain: MSEEKLGQHYLAALNEAFPGVVLDHAWQTKDQLTVTVKVNYLPEVVEFLYYKQGGWLSVLFGNDERKLNGHYAVYYVLSMEKGTKCWITVRVEVDANKPEYPSVTPRVPAAVWGEREVRDMYGLIPVGLPDERRLVLPDDWPDELYPLRKDSMDYRQRPAPTTDAETYEFINELGDKKNNVVPIGPLHVTSDEPGHFRLFVDGENIIDADYRLFYVHRGMEKLAETRMGYNEVTFLSDRVCGICGFAHSTAYTTSVENAMGIQVPERAQMIRAILLEVERLHSHLLNLGLACHFTGFDSGFMQFFRVRETSMKMAEILTGARKTYGLNLIGGIRRDLLKDDMIQTRQLAQQMRREVQELVDVLLSTPNMEQRTVGIGRLDPEIARDFSNVGPMVRASGHARDTRADHPFVGYGLLPMEVHSEQGCDVISRLKVRINEVYTALNMIDYGLDNLPGGPLMVEGFTYIPHRFALGFAEAPRGDDIHWSMTGDNQKLYRWRCRAATYANWPTLRYMLRGNTVSDAPLIIGSLDPCYSCTDR
notes: HycE, large [NiFe] hydrogenase subunit of the E. coli formate hydrogenlyase (FHL) complex; His10 tag placed after Gly-83; also called [NiFe] hydrogenase HycE; Hyd-3 large subunit; source: purified from LMNG-solubilised membranes (HisTrap, SEC); not shown: His10, internal (after residue 83), kept
B3: HycD (natural protein, Escherichia coli, UniProt P16430 1-307, looked up)
chain: MSVLYPLIQALVLFAVAPLLSGITRVARARLHNRRGPGVLQEYRDIIKLLGRQSVGPDASGWVFRLTPYVMVGVMLTIATALPVVTVGSPLPQLGDLITLLYLFAIARFFFAISGLDTGSPFTAIGASREAMLGVLVEPMLLLGLWVAAQVAGSTNISNITDTVYHWPLSQSIPLVLALCACAFATFIEMGKLPFDLAEAEQELQEGPLSEYSGSGFGVMKWGISLKQLVVLQMFVGVFIPWGQMETFTAGGLLLALVIAIVKLVVGVLVIALFENSMARLRLDITPRITWAGFGFAFLAFVSLLAA
notes: HycD, integral membrane subunit (ND1 homolog) of the E. coli formate hydrogenlyase (FHL) complex, eight TMHs; Native subunit from the hycABCDEFGHI operon, not tagged; also called membrane-anchor subunit HycD (ND1 homolog); source: endogenous, E. coli strain MG059e1, anaerobic fermentation; co-purified with His10-HycE from LMNG-solubilised membranes (HisTrap, SEC)
B4: HycB (natural protein, Escherichia coli, UniProt P0AAK1 1-203, looked up)
chain: MNRFVIADSTLCIGCHTCEAACSETHRQHGLQSMPRLRVMLNEKESAPQLCHHCEDAPCAVVCPVNAITRVDGAVQLNESLCVSCKLCGIACPFGAIEFSGSRPLDIPANANTPKAPPAPPAPARVSTLLDWVPGIRAIAVKCDLCSFDEQGPACVRMCPTKALHLVDNTDIARVSKRKRELTFNTDFGDLTLFQQAQSGEAK
notes: HycB, ferredoxin-like subunit of the E. coli formate hydrogenlyase (FHL) complex; coordinates [4Fe4S] clusters B1-B4; Native subunit from the hycABCDEFGHI operon, not tagged; also called ferredoxin-like protein HycB; source: endogenous, E. coli strain MG059e1, anaerobic fermentation; co-purified with His10-HycE from LMNG-solubilised membranes (HisTrap, SEC)

Experiment [1] deals with T1, formate dehydrogenase H (FdhF) (Escherichia coli, UniProt P07658 1-715, metal-coordinating selenocysteine (Sec); position not given).
T1 construct: Formate dehydrogenase H, FdhF, subunit of the E. coli formate hydrogenlyase (FHL) complex; carries Mo(MGD)2 and [4Fe4S] cluster A1; Native subunit, not tagged; also called formate dehydrogenase subunit FdhF; source: endogenous, E. coli strain MG059e1, anaerobic fermentation; co-purified with His10-HycE from LMNG-solubilised membranes (HisTrap, SEC)
T1 sequence (looked up): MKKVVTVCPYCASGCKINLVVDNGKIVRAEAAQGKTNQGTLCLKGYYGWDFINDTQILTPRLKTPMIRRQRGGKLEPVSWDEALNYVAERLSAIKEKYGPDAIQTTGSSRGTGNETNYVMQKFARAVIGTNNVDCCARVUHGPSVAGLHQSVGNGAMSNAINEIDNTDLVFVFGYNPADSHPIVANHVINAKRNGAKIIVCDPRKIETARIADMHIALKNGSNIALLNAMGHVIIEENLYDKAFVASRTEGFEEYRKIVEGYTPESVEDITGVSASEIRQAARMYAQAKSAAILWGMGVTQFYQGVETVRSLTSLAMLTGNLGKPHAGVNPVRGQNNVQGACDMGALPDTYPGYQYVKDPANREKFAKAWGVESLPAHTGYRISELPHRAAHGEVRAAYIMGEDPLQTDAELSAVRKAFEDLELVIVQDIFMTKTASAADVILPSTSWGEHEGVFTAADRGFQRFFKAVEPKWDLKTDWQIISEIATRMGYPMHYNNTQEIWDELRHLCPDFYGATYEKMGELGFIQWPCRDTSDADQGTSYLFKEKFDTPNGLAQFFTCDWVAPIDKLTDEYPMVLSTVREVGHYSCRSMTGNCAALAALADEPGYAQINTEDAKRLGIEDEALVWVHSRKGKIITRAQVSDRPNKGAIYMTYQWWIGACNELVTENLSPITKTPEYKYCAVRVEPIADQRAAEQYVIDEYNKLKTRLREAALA
Description: cryo-EM structure; aerobically isolated FHL (heptameric FdhF-HycBCDEFG) in LMNG, single-particle analysis, 3.4 Å (focused refinements 3.0-3.4 Å). The following applies: both partners purified.

In the experiment “HycB” the target is B4. Description: cryo-EM structure; anaerobically isolated FHL (hexameric HycBCDEFG) in LMNG, grids prepared in the anaerobic chamber with fluorinated fos-choline-8, 2.6 Å. The note with it: both partners purified.
Experiment [2] concerns the target T2, HycC (Escherichia coli, UniProt P16429 1-608).
T2 construct: Native subunit from the hycABCDEFGHI operon, not tagged; also called antiporter-like subunit HycC; source: endogenous, E. coli strain MG059e1, anaerobic fermentation; co-purified with His10-HycE from LMNG-solubilised membranes (HisTrap, SEC)
T2 sequence (looked up): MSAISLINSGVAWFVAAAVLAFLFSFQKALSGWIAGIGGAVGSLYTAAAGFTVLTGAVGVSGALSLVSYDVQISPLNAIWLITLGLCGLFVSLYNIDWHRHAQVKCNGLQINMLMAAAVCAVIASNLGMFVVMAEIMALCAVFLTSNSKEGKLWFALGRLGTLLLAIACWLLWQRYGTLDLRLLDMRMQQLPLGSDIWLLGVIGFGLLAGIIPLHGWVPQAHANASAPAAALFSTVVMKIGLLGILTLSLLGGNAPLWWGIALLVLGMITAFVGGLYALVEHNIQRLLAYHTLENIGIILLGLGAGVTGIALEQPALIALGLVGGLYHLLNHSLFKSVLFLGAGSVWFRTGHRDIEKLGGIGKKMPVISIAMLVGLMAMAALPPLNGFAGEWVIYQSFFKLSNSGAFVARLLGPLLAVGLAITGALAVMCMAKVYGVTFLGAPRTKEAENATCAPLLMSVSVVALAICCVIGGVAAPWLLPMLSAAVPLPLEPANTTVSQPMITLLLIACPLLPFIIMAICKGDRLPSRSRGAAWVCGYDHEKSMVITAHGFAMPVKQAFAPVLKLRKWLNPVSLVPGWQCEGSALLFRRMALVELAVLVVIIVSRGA
Description: co-purification (His-tag affinity, then SEC); aerobic isolation: membranes solubilised with 0.5% LMNG, HisTrap FF by the His10 tag in HycE, Superdex 200 Increase; 20 mM Tris, 200 mM NaCl, 1 mM DTT, 0.005% LMNG, pH 7.5. The following applies: partners not purified.

In experiment [3] the target is T2, HycC. Description: cryo-EM structure; anaerobically isolated FHL (hexameric HycBCDEFG) in LMNG, grids prepared in the anaerobic chamber with fluorinated fos-choline-8, 2.6 Å. The note with it: both partners purified.
Experiment [4] has as its target B2. The experiment is described as follows: co-purification (His-tag affinity, then SEC); aerobic isolation: membranes solubilised with 0.5% LMNG, HisTrap FF by the His10 tag in HycE, Superdex 200 Increase; 20 mM Tris, 200 mM NaCl, 1 mM DTT, 0.005% LMNG, pH 7.5. The note with it: partners not purified.
The target of experiment [5] is B2. Description: co-purification (His-tag affinity, then SEC); anaerobic isolation: as the aerobic one but in an anaerobic chamber (<1 ppm O2, 3-4% hydrogen in nitrogen), anaerobic buffers, lysis by sonication (also bead-beating or B-PER). The following applies: partners not purified.

As to B1, the binding result (in experiment [1]; with HycB) was “binds” in each case. Regarding B2, the binding result with HycC [2] is “binds”. For the molecule B3, the binding result (with HycC [3]; in experiment [4]) was “binds” in each case. On to B4, for which the binding result in experiment [1] and in experiment [5] was “binds” throughout.
